From publication PMC4072508, “Genome-Wide Prediction and Validation of Peptides That Bind Human Prosurvival Bcl-2 Proteins” (PLoS Computational Biology, 2014)

Columns and labels:
Mcl-1, Q07820 = biological target: T1, Mcl-1, Q07820; assay: peptide SPOT array, c-Myc-tagged receptor at 1 uM or 100 nM, anti-c-Myc-Cy3
T1 chain: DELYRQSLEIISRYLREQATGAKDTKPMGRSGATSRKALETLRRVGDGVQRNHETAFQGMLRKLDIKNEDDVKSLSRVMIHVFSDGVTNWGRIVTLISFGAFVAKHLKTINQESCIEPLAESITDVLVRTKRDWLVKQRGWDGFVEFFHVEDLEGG

Bcl-xL, Q07817 = assay: as above
Chain of Bcl-xL, Q07817 (Q07817 1-209): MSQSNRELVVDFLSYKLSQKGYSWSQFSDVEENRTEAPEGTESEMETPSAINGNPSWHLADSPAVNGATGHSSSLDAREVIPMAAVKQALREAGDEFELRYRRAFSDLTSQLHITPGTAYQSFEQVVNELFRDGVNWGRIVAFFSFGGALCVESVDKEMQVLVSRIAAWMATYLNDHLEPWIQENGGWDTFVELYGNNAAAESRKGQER

## IGFFIAFGIAMGKMGDQAKLMVDFFN [SLC1A2]
Mcl-1, Q07820
  SPOT signal as a fraction of Bim BH3's signal on the same receptor and array: 0.02
Bcl-xL, Q07817
  SPOT signal as a fraction of Bim BH3's signal on the same receptor and array: 0.02

## TLHFNQRGTWLASGSDDLKVVVWDWV [DCAF8]
Mcl-1, Q07820
  SPOT signal as a fraction of Bim BH3's signal on the same receptor and array: 0.02
Bcl-xL, Q07817
  SPOT signal as a fraction of Bim BH3's signal on the same receptor and array: 0.02

## DHTDGVVACAAGLIGDLCTAFGKDVL
Mcl-1, Q07820
  SPOT signal as a fraction of Bim BH3's signal on the same receptor and array: 0.02
Bcl-xL, Q07817
  SPOT signal as a fraction of Bim BH3's signal on the same receptor and array: 0.02

## VLSRIEAGRSDKSVMDEFGISKSTFY
Mcl-1, Q07820
  SPOT signal as a fraction of Bim BH3's signal on the same receptor and array: 0.02
Bcl-xL, Q07817
  SPOT signal as a fraction of Bim BH3's signal on the same receptor and array: 0.02

## LSPGRSVTAGIIIVGDEILKGHTQDT [FLAD1]
Mcl-1, Q07820
  SPOT signal as a fraction of Bim BH3's signal on the same receptor and array: 0.01
Bcl-xL, Q07817
  SPOT signal as a fraction of Bim BH3's signal on the same receptor and array: 0.01

## AVLCVECGYKDRFFGEDAEIAARELN [MSH3]
Mcl-1, Q07820
  SPOT signal as a fraction of Bim BH3's signal on the same receptor and array: 0.02
Bcl-xL, Q07817
  SPOT signal as a fraction of Bim BH3's signal on the same receptor and array: 0.02

## DLLGMVVVDELHMLLDSHRGYLLELL [POLQ]
Mcl-1, Q07820
  SPOT signal as a fraction of Bim BH3's signal on the same receptor and array: 0.02
Bcl-xL, Q07817
  SPOT signal as a fraction of Bim BH3's signal on the same receptor and array: 0.02

## TPSRSALSSEDSLVGDTTGDTLEKFV
Mcl-1, Q07820
  SPOT signal as a fraction of Bim BH3's signal on the same receptor and array: 0.01
Bcl-xL, Q07817
  SPOT signal as a fraction of Bim BH3's signal on the same receptor and array: 0.01

## VLSRIEAGRSLKSVADEFGISKSTFY [TIGD7_3eA]
Mcl-1, Q07820
  SPOT signal as a fraction of Bim BH3's signal on the same receptor and array: 0.02
Bcl-xL, Q07817
  SPOT signal as a fraction of Bim BH3's signal on the same receptor and array: 0.95

## PPDAHVLGKADEAAGQDFSLDLRSTG [CIITA]
Mcl-1, Q07820
  SPOT signal as a fraction of Bim BH3's signal on the same receptor and array: 0.01
Bcl-xL, Q07817
  SPOT signal as a fraction of Bim BH3's signal on the same receptor and array: 0.01

## TPSRSALSSELSLVLDTTGDTLEKFV
Mcl-1, Q07820
  SPOT signal as a fraction of Bim BH3's signal on the same receptor and array: 0.01
Bcl-xL, Q07817
  SPOT signal as a fraction of Bim BH3's signal on the same receptor and array: 0.02

## LNAVNYISTVDADWADNVFFLQLQQA
Mcl-1, Q07820
  SPOT signal as a fraction of Bim BH3's signal on the same receptor and array: 0.03
Bcl-xL, Q07817
  SPOT signal as a fraction of Bim BH3's signal on the same receptor and array: 0.02

## RDPQGWVAGNLSARGDGAAGFTLPGF [MST1R]
Mcl-1, Q07820
  SPOT signal as a fraction of Bim BH3's signal on the same receptor and array: 0.02
Bcl-xL, Q07817
  SPOT signal as a fraction of Bim BH3's signal on the same receptor and array: 0.02

## CDLLGAKGKDILYILDHIFGDILKSK [NT5C2]
Mcl-1, Q07820
  SPOT signal as a fraction of Bim BH3's signal on the same receptor and array: 0.06
Bcl-xL, Q07817
  SPOT signal as a fraction of Bim BH3's signal on the same receptor and array: 0.06

## DLSAVTLSREDQAMAEQLAENYHNTW
Mcl-1, Q07820
  SPOT signal as a fraction of Bim BH3's signal on the same receptor and array: 0.02
Bcl-xL, Q07817
  SPOT signal as a fraction of Bim BH3's signal on the same receptor and array: 0.02

## CALLGSTGERDCLAGDSAGGNLCFTV [LIPE]
Mcl-1, Q07820
  SPOT signal as a fraction of Bim BH3's signal on the same receptor and array: 0.01
Bcl-xL, Q07817
  SPOT signal as a fraction of Bim BH3's signal on the same receptor and array: 0.01

## LNAVNYISTVLADWLDNVFFLQLQQA
Mcl-1, Q07820
  SPOT signal as a fraction of Bim BH3's signal on the same receptor and array: 0.03
Bcl-xL, Q07817
  SPOT signal as a fraction of Bim BH3's signal on the same receptor and array: 0.02

## SHALICISHWILGILDRHLNNFMVAM [PRKDC]
Mcl-1, Q07820
  SPOT signal as a fraction of Bim BH3's signal on the same receptor and array: 0.02
Bcl-xL, Q07817
  SPOT signal as a fraction of Bim BH3's signal on the same receptor and array: 0.03

## RCELQICGLAMADALEYLCVCGQERT [OBSCN]
Mcl-1, Q07820
  SPOT signal as a fraction of Bim BH3's signal on the same receptor and array: 0.02
Bcl-xL, Q07817
  SPOT signal as a fraction of Bim BH3's signal on the same receptor and array: 0.02

## QRLINLVGESLRLLGNTFVALSDLRC
Mcl-1, Q07820
  SPOT signal as a fraction of Bim BH3's signal on the same receptor and array: 0.03
Bcl-xL, Q07817
  SPOT signal as a fraction of Bim BH3's signal on the same receptor and array: 0.05

## RHFVIRRGQVLREIAEEYGGVMVSFP [HDLBP]
Mcl-1, Q07820
  SPOT signal as a fraction of Bim BH3's signal on the same receptor and array: 0.04
Bcl-xL, Q07817
  SPOT signal as a fraction of Bim BH3's signal on the same receptor and array: 0.05

## GKPETCTGQDLADLLDRLRDWFQLLH [SPOCK2]
Mcl-1, Q07820
  SPOT signal as a fraction of Bim BH3's signal on the same receptor and array: 0.01
Bcl-xL, Q07817
  SPOT signal as a fraction of Bim BH3's signal on the same receptor and array: 0.02

## DLSAVTLSRELQAMAEQLAENYHNTW
Mcl-1, Q07820
  SPOT signal as a fraction of Bim BH3's signal on the same receptor and array: 0.02
Bcl-xL, Q07817
  SPOT signal as a fraction of Bim BH3's signal on the same receptor and array: 0.02

## DHTDGVVACAAGLILDLCTAFGKDVL
Mcl-1, Q07820
  SPOT signal as a fraction of Bim BH3's signal on the same receptor and array: 0.02
Bcl-xL, Q07817
  SPOT signal as a fraction of Bim BH3's signal on the same receptor and array: 0.01

## NKTMTQLSSTLARCAKDILGFAVMFF [PKD2L1]
Mcl-1, Q07820
  SPOT signal as a fraction of Bim BH3's signal on the same receptor and array: 0.11
Bcl-xL, Q07817
  SPOT signal as a fraction of Bim BH3's signal on the same receptor and array: 0.15

## SKFVILSAHKLVFIGDTLTRQVTAQD [NEDD9]
Mcl-1, Q07820
  SPOT signal as a fraction of Bim BH3's signal on the same receptor and array: 0.04
Bcl-xL, Q07817
  SPOT signal as a fraction of Bim BH3's signal on the same receptor and array: 0.05

## KNIAGALAFWDANASELLNFIKQDRD [MLLT4]
Mcl-1, Q07820
  SPOT signal as a fraction of Bim BH3's signal on the same receptor and array: 0.02
Bcl-xL, Q07817
  SPOT signal as a fraction of Bim BH3's signal on the same receptor and array: 0.02

## VLSRIEAGRSLKSVMDEFGISKSTFY
Mcl-1, Q07820
  SPOT signal as a fraction of Bim BH3's signal on the same receptor and array: 0.11
Bcl-xL, Q07817
  SPOT signal as a fraction of Bim BH3's signal on the same receptor and array: 0.11

## CILNSFYGYVMRKGLRWYSMEMAGIV [POLE]
Mcl-1, Q07820
  SPOT signal as a fraction of Bim BH3's signal on the same receptor and array: 0.24
Bcl-xL, Q07817
  SPOT signal as a fraction of Bim BH3's signal on the same receptor and array: 0.29

## AIKWDPTGNLDASCSDDMTLKIWSMK [TBL1XR1]
Mcl-1, Q07820
  SPOT signal as a fraction of Bim BH3's signal on the same receptor and array: 0.03
Bcl-xL, Q07817
  SPOT signal as a fraction of Bim BH3's signal on the same receptor and array: 0.03

## QRLINLVGESDRLLGNTFVALSDLRC
Mcl-1, Q07820
  SPOT signal as a fraction of Bim BH3's signal on the same receptor and array: 0.02
Bcl-xL, Q07817
  SPOT signal as a fraction of Bim BH3's signal on the same receptor and array: 0.08
